The values that follow come from patent CN112063765A.

Experiment [1] concerns the target H1N1特异性的表位肽 (SEQ ID NO:4) (Influenza A virus H1N1).
Experiment [2] shares this target. As to the kind of experiment: indirect ELISA, titre of purified ascites antibody.

What is called Kd is a measure of binding affinity in units of concentration.

B1: 3E6单克隆抗体 (antibody, V domains shown)
VH: EVQLEESGTELARPGASVKLALKASGYIFSSYSGQWIKQRPGAGLELIGYPYPGWIDTRYTQKLTGKATLTADKSSSTLYMQLSSLASEDSAVAYCAGSYFSSDAWGLGTTLAVSS
VL: DIVLTQSPALMAASAGEKVTITCAVSQSIQSGYLAWYQQKSGISPKPWIYDTSNQAGGVPARFSGAGSGTSYSLTITSMEAEDAATYYCAQGTTSPLSFGAGTKLELK
In the case of B1, the Kd in experiment [1] was 0.48 nM. In experiment [2], this molecule came in with an OD492 at dilution 1:1000 of 4.91 OD492, an OD492 at dilution 1:10000 of 1.89 OD492, an OD492 at dilution 1:100000 of 0.455 OD492 and an OD492 at dilution 1:1000000 of 0.121 OD492. Also, the OD492 at dilution 1:10000000 in experiment [2] turned out to be 0.0632 OD492.
